Source: patent US20180246086A1

Molecular target: Hapten-1-BSA, a general complete antigen of type I pyrethroid (bovine) (UniProt P02769)
Experiment: indirect non-competitive ELISA, plate coated with Hapten-1-BSA at 2.0, 1.0, 0.5 and 0.25 µg/mL, antibody titrated

Sequence of Hapten-1-BSA, a general complete antigen of type I pyrethroid (bovine) (P02769 25-607 limits assumed, form in doubt): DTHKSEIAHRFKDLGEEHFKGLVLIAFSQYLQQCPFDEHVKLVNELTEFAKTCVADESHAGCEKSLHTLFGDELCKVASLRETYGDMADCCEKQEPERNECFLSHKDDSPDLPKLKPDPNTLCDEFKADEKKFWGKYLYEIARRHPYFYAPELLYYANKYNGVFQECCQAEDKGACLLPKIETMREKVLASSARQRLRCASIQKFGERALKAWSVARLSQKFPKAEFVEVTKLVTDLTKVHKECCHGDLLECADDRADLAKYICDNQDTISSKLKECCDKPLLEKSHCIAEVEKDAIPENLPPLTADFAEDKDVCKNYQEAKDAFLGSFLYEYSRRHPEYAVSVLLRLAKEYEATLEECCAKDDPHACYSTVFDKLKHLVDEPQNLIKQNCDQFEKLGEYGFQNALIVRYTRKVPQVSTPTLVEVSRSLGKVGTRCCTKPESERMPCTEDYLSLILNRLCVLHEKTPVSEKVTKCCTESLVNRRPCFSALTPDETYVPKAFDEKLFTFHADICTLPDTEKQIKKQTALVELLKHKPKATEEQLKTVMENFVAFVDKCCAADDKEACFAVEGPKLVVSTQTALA

B1: universal monoclonal antibody against type I pyrethroid secreted by hybridoma cell line QW8# (antibody, IgG2a, V domains shown)
VH: QVTLKESGPGILQPSQTLSLTCSFSGFSLSTYGIGIGWIRQSSGRGLEWLAHIWWNDNRYYNIALKSRLTISKDASNNQFFLKLASVDTADIATYYCVRGYGRPFYAMDYWGQGTTVTVSS
VL: QAVVTQESALTTSPGETVTLTCRSSTGAVTTSNYVNWVQEKPDHLFTGLIGGTNNRGPGVPARFSGSLIGDKAALTITGTQTEDEAIYFCALWYSNHWVFGGGTKLTVL
Ka: 2.16e+08 M⁻¹
